The values that follow come from article PMC4297517 (Journal of molecular biology, 2014).

For this test, the target named is ClpB_(E279A,E678A) (E. coli, UniProt P63284 1-857, E279A | E678A). The test can be described thus: fluorescence polarisation. Background: Polarisation of emitted light reports the rotation of a fluorescent probe.

B1: DnaK_(py-N282A*) (natural protein)
chain: not shown
modifications: N-(1-pyrene)maleimide label (K106C introduced for labeling); degree of labeling between 0.1 and 0.5
As to B1, the binding result is on record as “binds”.

B2: DnaK_(py-Q57A*) (natural protein)
chain: not shown
modifications: N-(1-pyrene)maleimide label (K106C introduced for labeling); degree of labeling between 0.1 and 0.5
Regarding B2, the binding result is on record as “binds”.
